Laboratory results from US20260078416A1, “ORTHOGONAL METABOLIC FRAMEWORK FOR ONE-CARBON UTILIZATION” (Mojia Biotech Pte. Ltd., priority 2021, published 2026).

B1: JGI20: HACS variant; GenBank PWB41796.1 (protein)
chain: MGQITGAQIVARALKQQGVEYMFGIVGIPVIPIAMFAQREGIKFYGFRNEQSASYAAAAVGYLTGRPGVCLGVSGPGMIHGVAGMANAWSNCWPMILIGGANDSYQNGQGAFQEAPQIEAARPFAKYCARPDSLARLPFYVEQAVRTSIYGRPGAVYLDLPGDIITGAMEEEDVHFPPRCPDAPRMMAPQESIDAAMAALKSAERPLVIVGKGAAYSRAENEVREFLETTQLPYLASPMGKGVMPDDHPLSIAPARSAALLGADVILLMGARLNWMMHFGHPPRFDPKVRVIQMDISAEEIGTNVPTEVALVGDAKAITTQLNASLKQQPWQYPSETTWWTGLRKKIDENGATVAEMMADESVPMSYYRVYREIRDLIPNDAIIQNEGASTMDIGRTLMPNFLPRHRLDAGSFGTMGVGLGQAIAAAAVHPDKHVFCIEGDSAFGFSGMEVETAARYGMKNITFIIINNNGIGGGPDTLDPTRVPPSAYTPNAHYEKMAEIYGGKGYFVTEPSQLRPALEEAIKADKPAIVNIMISATSQRKPQQFAWLTR
B2: JGI15: HACS variant; GenBank HAK63664.1 (protein)
chain: MAKSEGKVNGATLMARALQQQGVQYMFGIVGFPVIPIAIAAQREGITYIGMRNEQSASYAAQAASYLTGRPQACLVVSGPGVVHALAGLANAQVNCWPMLLIGGASAIEQNGMGAFQEERQVLLASPLCKYAHQVERPERIPYYVEQAVRSALFGRPGAAYLDMPDDVILGEVEEAAVRPAATVGEPPRSLAPQENIEAALDALQSAKRPLVIVGKGMAWSRAENEVRQFIERTRLPFLATPMGKGVMPDDHPLSVGGARSHALQEADLVFLLGARFNWILHFGLPPRYSKDVRVIQLDLSAEEIGNNRQAEVALVGDGKAIVGQLNQALSSRQWFYPAETPWREAIAAKIAGNQAAVAPMIADNTSPMNYYRVYRDIAARLPRNAIIVGEGANTMDIGRTQMPNFEPRSRLDAGSYGTMGIGLGFAVAAAAVHPGRPVIAVQGDSAFGFSGMEFETAARYGMPIKVIILNNGGIGMGSPAPRDGQPGMPHALSHDARYERIAEAFGGAGFYVTDSAELGPALDAAMAFKGPAIVNIKIAATADRKPQQFNWHG

Key:
Type in all cases: cell-based, E. coli
[1] = system: glycolate production from formaldehyde and formate; experiment: Resting-cell bioconversion pathway 2 (HACS with CaAbfT), co-feeding formaldehyde and formate
Excerpt: We used glycolic acid (glycolate) productivity per cell density (uM glycolate/OD600) as indicator of HACS activity. Two different enzymatic routes for glycolate synthesis are explored. The first pathway (pathway 1) is similar to the pathway used for initial screening in Example 2 with addition of an extra gene, aldehyde dehydrogenase aldA from Escherichia coli (EcAldA) overexpressed to drive flux from glycolaldehyde to glycolate (FIG. 21A). In addition, HACS and LmACR-AldA are controlled under independent inducible promoters to investigate the impact of varying relative gene expressions (FIG. 21B). The second pathway (pathway 2) involves independent fluxes of formaldehyde and formyl-CoA allowing assessment of the enzyme activity with response to changing formaldehyde concentration only, while maintaining constant formyl-CoA flux. Formyl-CoA is generated by formic acid (formate) catalyzed by the acyl-CoA transferase from Clostridium aminobutyricum (CaAbfT) (FIG. 22A).
For the in vivo prototyping, we engineered vectors to independently control expression of HACS variants and the LmACR-EcAldA (pathway 1, FIG. 21A) or CaAbfT (pathway 2, FIG. 22A), with HACS under control of the IPTG-inducible T7 promoter in pCDFDuet-1 and LmACR-EcAldA or CaAbfT under control of a cumate-inducible T5 promoter in pETDuet-1 (FIG. 21B). As a host for these vectors, we used an engineered strain of E. coli based on MG1655(DE3) with knockouts for formaldehyde (ΔfrmA) and formate (ΔfdhF ΔfdnG ΔfdoG) oxidation as well as for glycolate utilization (ΔglcD)), which we expected could compete or interfere with the analysis of our pathway. […]
Cells from the above pre-cultures were then centrifuged (4000 rpm, 22° C.), washed with the above minimal media without any carbon source, and resuspended with 1 mL of above minimal media containing indicated amounts of carbon source. […] The cells were harvested after 3 hours for LmACR-EcAldA co-expression and 1 hour for CaAbfT co-expression by centrifugation and the supernatant analyzed by HPLC or GC-MS as described in EXAMPLE 2. […]

[2] = system: 2,4-dihydroxybutyric acid production from 3-hydroxypropionaldehyde and formate; experiment: HACS screening with 3-hydroxypropionaldehyde and formate (DHB productivity); settings: 5 mM 3HP and 20 mM formate, first round
Excerpt: We used 2-hydroxyacid productivity per cell density (μM/OD600) as indicator of HACS activity. 2-Hydroxyacids can be produced co-feeding various aldehydes and formic acid (formate) as carbon source in the presence of active HACS variant and acyl-CoA transferase from Clostridium aminobutyricum (CaAbfT). CaAbfT is shown to be capable of catalyzing reaction from formate to formyl-CoA (Nattermann, M., et al. ACS Catal 11 (9): 5396-5404 (2021)). HACS condenses aldehyde and formyl-CoA to form 2-hydroxyacyl-CoA, which can then be hydrolyzed to 2-hydroxyacid via native thioesterase activities (FIG. 31A).
For the in vivo prototyping, we engineered vectors to independently control expression of HACS variants and CaAbfT, with HACS under control of the IPTG-inducible T7 promoter in pCDFDuet-1 and CaAbfT under control of a cumate-inducible T5 promoter in pETDuet-1 (FIG. 31B) and transformed them into the engineered strain of E. coli described in EXAMPLE 3.
The HACS variants were screened for 2-hydroxyacid production using the high throughput screening platform as described in EXAMPLE 3 by co-feeding 5 mM aldehyde and 20 mM formate. The cells were harvested after 1 hour by centrifugation and the supernatant analyzed by HPLC (as described in EXAMPLE 2) or SoGO method.
We used 2,4-dihydroxybutyric acid (DHB) productivity per cell density (uM DHB/OD600) as indicator of HACS activity. […]

[3] = system: 2HIB production from acetone and formate; experiment: HACS screening with acetone and formate (2HIB production); settings: 100 mM acetone and 20 mM formate, CaAbfT
Method: The HACS variants are tested using the high throughput screening platform as described in EXAMPLE 3 pathway 2 by co-feeding 100 mM acetone and 20 mM formate with formate activation enzyme CaAbfT (FIG. 37A).

[4] = 0.5 mM formaldehyde and 20 mM formate co-fed

Row | Molecule | glycolate productivity under high formaldehyde concentration ([1]; 5 mM formaldehyde and 20 mM formate co-fed) | DHB productivity [2] | performance in 2HIB production [3] | glycolate productivity relative to JGI20 [1, 4] | glycolate productivity relative to RuHACL [1, 4] | performance in 2HIB production ([3]; listed as JG115)
1 | B1 | better glycolate productivity | decent DHB productivity | better performance than other HACLs | – | – | –
2 | B2 | – | decent DHB productivity | best performance | 1.5 fold | 7 fold | better performance than other HACLs
